Data from FireProtDB (doi:10.1002/pro.5560050915).

B1: Adrenodoxin, mitochondrial, P00257 (parent)
chain: MAARLLRVASAALGDTAGRWRLLARPRAGAGGLRGSRGPGLGGGAVATRTLSVSGRAQSSSEDKITVHFINRDGETLTTKGKIGDSLLDVVVQNNLDIDGFGACEGTLACSTCHLIFEQHIFEKLEAITDEENDMLDLAYGLTDRSRLGCQICLTKAMDNMTVRVPDAVSDARESIDMGMNSSKIE

Variants of: B1
Conditions: Bos taurus, pH 8.5, Thermal, DSC, ascorbate 1 mM, structure 1AYF, whole UniProt chain shown; for ddG of mutation (higher = less stable) / unfolding free energy: 37 °C

## MAARLLRVASAALGDTAGRWRLLARPRAGAGGLRGSRGPGLGGGAVATRTLSVSGRAQSSSEDKITVHFINRDGETLTTKGKIGDSLLDVVVQNNLDIDGFGACEGTLACSTCHLIFEQHIFEKLEAITDEENDMLDLAYGLTDRSRLGCQISLTKAMDNMTVRVPDAVSDARESIDMGMNSSKIE [C153S]
  Tm: 55.8 °C
  change of melting temperature, mutant - wild type (higher = more stable): 4.36 °C
  heat capacity change of unfolding: 1.62 kcal/mol/K
  unfolding enthalpy (calorimetric): 89.3 kcal/mol

## MAARLLRVASAALGDTAGRWRLLARPRAGAGGLRGSRGPGLGGGAVATRTLSVSGRAQSSSEDKITVHFINRDGETLTTKGKIGDSLLDVVVQNNLDIDGFGACEGTLACSTCHLIFEQHIFEKLEAITDEENDMLDLAWGLTDRSRLGCQICLTKAMDNMTVRVPDAVSDARESIDMGMNSSKIE [Y140W]
  ddG of mutation (higher = less stable): 0.21 kcal/mol
  unfolding free energy: 2.97 kcal/mol
  Tm: 51.7 °C
  change of melting temperature, mutant - wild type (higher = more stable): 0.31 °C
  heat capacity change of unfolding: 1.87 kcal/mol/K
  unfolding enthalpy (calorimetric): 78.6 kcal/mol

## MAARLLRVASAALGDTAGRWRLLARPRAGAGGLRGSRGPGLGGGAVATRTLSVSGRAQSSSEDKITVHFINRDGETLTTKGKIGDSLLDVVVQNNLDIDGFGACEGTLACSTCHLIFEQHIFEKLEAITDEENDMLDLASGLTDRSRLGCQICLTKAMDNMTVRVPDAVSDARESIDMGMNSSKIE [Y140S]
  Tm: 50.6 °C
  change of melting temperature, mutant - wild type (higher = more stable): -0.79 °C
  heat capacity change of unfolding: 1.96 kcal/mol/K
  unfolding enthalpy (calorimetric): 79.9 kcal/mol

## MAARLLRVASAALGDTAGRWRLLARPRAGAGGLRGSRGPGLGGGAVATRTLSVSGRAQSSSEDKITVHFINRDGETLTTKGKIGDSLLDVVVQNNLDIDGFGACEGTLACSTCHLIFEQHIFEKLEAITDEENDMLDLAFGLTDRSRLGCQICLTKAMDNMTVRVPDAVSDARESIDMGMNSSKIE [Y140F]
  ddG of mutation (higher = less stable): 0.01 kcal/mol
  unfolding free energy: 3.17 kcal/mol
  Tm: 51.5 °C
  change of melting temperature, mutant - wild type (higher = more stable): 0.11 °C
  heat capacity change of unfolding: 1.8 kcal/mol/K
  unfolding enthalpy (calorimetric): 83.7 kcal/mol

## MAARLLRVASAALGDTAGRWRLLARPRAGAGGLRGSRGPGLGGGAVATRTLSVSGRAQSSSEDKITVHFINRDGETLTTKGKIGDSLLDVVVQNNLDIDGFGACEGTLACSTCHLIFEQHIFEKLEAITDEENDMLDLALGLTDRSRLGCQICLTKAMDNMTVRVPDAVSDARESIDMGMNSSKIE [Y140L]
  ddG of mutation (higher = less stable): 0.36 kcal/mol
  unfolding free energy: 2.83 kcal/mol
  Tm: 50.7 °C
  change of melting temperature, mutant - wild type (higher = more stable): -0.69 °C
  heat capacity change of unfolding: 1.92 kcal/mol/K
  unfolding enthalpy (calorimetric): 78.9 kcal/mol

## MAARLLRVASAALGDTAGRWRLLARPRAGAGGLRGSRGPGLGGGAVATRTLSVSGRAQSSSEDKITVHFINRDGETLTTKGKIGDSLLDVVVQNNLDIDGFGACEGTLACSTCRLIFEQHIFEKLEAITDEENDMLDLAYGLTDRSRLGCQICLTKAMDNMTVRVPDAVSDARESIDMGMNSSKIE [H114R]
  ddG of mutation (higher = less stable): 1.16 kcal/mol
  unfolding free energy: 2.02 kcal/mol
  Tm: 49.3 °C
  change of melting temperature, mutant - wild type (higher = more stable): -2.11 °C
  heat capacity change of unfolding: 1.03 kcal/mol/K
  unfolding enthalpy (calorimetric): 59.4 kcal/mol

## MAARLLRVASAALGDTAGRWRLLARPRAGAGGLRGSRGPGLGGGAVATRTLSVSGRAQSSSEDKITVHFINRDGETLTTKGKIGDSLLDVVVQNNLDIDGFGACEGTLACSTCQLIFEQHIFEKLEAITDEENDMLDLAYGLTDRSRLGCQICLTKAMDNMTVRVPDAVSDARESIDMGMNSSKIE [H114Q]
  Tm: 46.5 °C
  change of melting temperature, mutant - wild type (higher = more stable): -4.94 °C
  heat capacity change of unfolding: 1.7 kcal/mol/K
  unfolding enthalpy (calorimetric): 59.6 kcal/mol

## MAARLLRVASAALGDTAGRWRLLARPRAGAGGLRGSRGPGLGGGAVATRTLSVSGRAQSSSEDKITVHFINRDGETLTTKGKIGDSLLDVVVQNNLDIDGFGACEGTLACSTCTLIFEQHIFEKLEAITDEENDMLDLAYGLTDRSRLGCQICLTKAMDNMTVRVPDAVSDARESIDMGMNSSKIE [H114T]
  ddG of mutation (higher = less stable): 1.19 kcal/mol
  unfolding free energy: 1.99 kcal/mol

## MAARLLRVASAALGDTAGRWRLLARPRAGAGGLRGSRGPGLGGGAVATRTLSVSGRAQSSSEDKITVHFINRDGETLTTKGKIGDSLLDVVVQNNLDIDGFGACEGTLACSSCHLIFEQHIFEKLEAITDEENDMLDLAYGLTDRSRLGCQICLTKAMDNMTVRVPDAVSDARESIDMGMNSSKIE [T112S]
  ddG of mutation (higher = less stable): -0.05 kcal/mol
  unfolding free energy: 3.23 kcal/mol
  Tm: 51.6 °C
  change of melting temperature, mutant - wild type (higher = more stable): 0.21 °C
  heat capacity change of unfolding: 1.91 kcal/mol/K
  unfolding enthalpy (calorimetric): 84.7 kcal/mol

## MAARLLRVASAALGDTAGRWRLLARPRAGAGGLRGSRGPGLGGGAVATRTLSVSGRAQSSSEDKITVHFINRDGETLTTKGKIGDSLLDVVVQNNLDIDGFGACEGTLACSACHLIFEQHIFEKLEAITDEENDMLDLAYGLTDRSRLGCQICLTKAMDNMTVRVPDAVSDARESIDMGMNSSKIE [T112A]
  ddG of mutation (higher = less stable): 1.31 kcal/mol
  unfolding free energy: 1.87 kcal/mol
  Tm: 47.1 °C
  change of melting temperature, mutant - wild type (higher = more stable): -4.29 °C
  heat capacity change of unfolding: 1.63 kcal/mol/K
  unfolding enthalpy (calorimetric): 68.2 kcal/mol

## MAARLLRVASAALGDTAGRWRLLARPRAGAGGLRGSRGPGLGGGAVATRTLSVSGRAQSSSEDKITVHFINRDGETLTTKGKIGDSLLDVVVQNNLDIDGFGACEGTLACSTCHLIFEQHIFEKLEAITDEENEMLDLAYGLTDRSRLGCQICLTKAMDNMTVRVPDAVSDARESIDMGMNSSKIE [D134E]
  ddG of mutation (higher = less stable): -0.45 kcal/mol
  unfolding free energy: 3.64 kcal/mol
  Tm: 53.4 °C
  change of melting temperature, mutant - wild type (higher = more stable): 2.01 °C
  heat capacity change of unfolding: 2.45 kcal/mol/K
  unfolding enthalpy (calorimetric): 86.8 kcal/mol
